Test results reported in article doi:10.1101/2021.03.15.435484, “Functional development of a V3-specific broadly neutralizing antibody isolated from a case of HIV superinfection” (bioRxiv, 2021).

Target: BG505.SOSIP.664 Env trimer (heterologous clade A native-like trimer containing the N332 glycan) (HIV-1 clade A, isolate BG505 …, stabilised)
Test: cell-based or functional assay

B1: QA013.2 CDRH3 point mutant antibody D106V (mature VH D106V paired with the mature light chain) (antibody, V domains shown)
VH: DIRIAESGGGLVQPGESLRLACEIIELGFRRAWTTWVRQAPGKGLEWVADINEDGSEKKYGPSVTGRFTISRDNGKNLVFLQMNSLRVEDTATYYCAREAYHLVYVDRIPRGNWFDPWGPGTLVTVSS
VL: QSVLTQPPSVSGAPGQRVVISCTGSRSNIGAGYDVHWYQQSPGKVPRIIIYGSNSRSSGVPARFSGSKSGTSASLAITGLQAEDEADYYCQSYDTTLTASVFGGGTKVTVL
average fold increase in neutralisation IC50 across all tested pseudoviruses relative to the mature bnAb (TZM-bl assay): 40 fold
